Reference: patent publication US20060029667A1 (RUTGERS THE STATE UNIVERSITY OF NEW JERSEY, published 2006)
Non-standard residues stand in square brackets, D forms with d. No end group written: not given here. *: point of attachment. Biotin = O=C1N[C@H]2[C@H](CS[C@H]2CCCCC(=O)*)N1

How the values were obtained:
[1] = molecular target: high affinity formyl methionine receptor (fMLF receptor) on differentiated HL-60 cells (human) (UniProt P21462); experiment: cell-based or functional assay
[2] = molecular target: high affinity formyl methionine receptor (fMLF receptor) on differentiated HL-60 cells (human) (UniProt P21462); experiment: radioligand binding to DMSO-differentiated HL-60 cells
[3] = molecular target: T1, human sodium dependent multivitamin transporter, hSMVT (human, UniProt Q9Y289 1-635); experiment: cell-based or functional assay
T1 sequence (looked up): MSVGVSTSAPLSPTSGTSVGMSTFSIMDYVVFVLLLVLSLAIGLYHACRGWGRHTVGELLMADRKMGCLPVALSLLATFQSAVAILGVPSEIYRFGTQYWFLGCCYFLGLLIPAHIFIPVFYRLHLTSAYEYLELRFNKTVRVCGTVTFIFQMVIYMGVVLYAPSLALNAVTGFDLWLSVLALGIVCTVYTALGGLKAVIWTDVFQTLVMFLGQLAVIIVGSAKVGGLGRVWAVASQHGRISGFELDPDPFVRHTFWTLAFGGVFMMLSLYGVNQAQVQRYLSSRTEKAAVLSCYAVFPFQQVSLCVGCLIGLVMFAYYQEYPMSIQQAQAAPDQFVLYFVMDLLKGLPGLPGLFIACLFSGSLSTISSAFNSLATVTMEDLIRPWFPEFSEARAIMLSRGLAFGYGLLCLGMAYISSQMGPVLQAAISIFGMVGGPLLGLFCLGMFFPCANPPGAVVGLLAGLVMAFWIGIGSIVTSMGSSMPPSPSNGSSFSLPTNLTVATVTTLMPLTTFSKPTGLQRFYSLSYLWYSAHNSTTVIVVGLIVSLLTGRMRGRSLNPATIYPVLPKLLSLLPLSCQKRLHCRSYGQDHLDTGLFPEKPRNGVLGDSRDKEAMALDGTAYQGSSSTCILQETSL

high affinity formyl methionine receptor (fMLF receptor) on differentiated HL-60 cells (human), sequence (P21462 whole entry): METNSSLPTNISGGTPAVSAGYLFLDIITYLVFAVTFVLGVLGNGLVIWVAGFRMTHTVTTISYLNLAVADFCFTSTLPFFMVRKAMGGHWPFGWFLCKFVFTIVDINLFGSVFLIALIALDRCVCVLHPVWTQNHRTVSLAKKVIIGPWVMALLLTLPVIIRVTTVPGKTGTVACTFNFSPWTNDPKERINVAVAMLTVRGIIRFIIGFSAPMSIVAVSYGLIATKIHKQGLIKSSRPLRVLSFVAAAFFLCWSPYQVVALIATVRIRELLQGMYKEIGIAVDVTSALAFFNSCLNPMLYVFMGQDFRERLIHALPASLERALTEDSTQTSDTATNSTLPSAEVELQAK

Molecule “N-formyl-methionine-leucine-phenylalanine (fMLF) peptide” has a Cell Activation EC50 (calcium release from intracellular stores, differentiated HL-60 cells) [1] of 4.7 nM.

In the case of fML[3H]F (peptide), the specific binding as percent of total binding [2] is reported as 75%.

With [dK](Biotin)[dR][dR][dR][dQ][dR][dR][dK][dK][dR]-NH2 (not fully specified (N-terminus)) [RI-K(biotin)-Tat9] the “uptake in CHO/hSMVT cells relative to RI-K-Tat9 (at 10 µM)” value [3] was about 500 fold.
